In paper PMC9582194, “The effect of helix-inducing constraints and downsizing upon a transcription block survival-derived functional cJun antagonist” (Cell Reports. Physical Science, 2022):
Each block holds one molecule with its values, some of them ahead of it. Positions of bridges follow the written chain, without caps; N, C: chain ends. Residues, ends and D or L forms follow the SMILES beside them. No end group written: not given here.

Key:
cJun = biological target: T1, cJun (Homo sapiens, UniProt P05412); assay: CD thermal denaturation of peptide-cJun heterodimers (Tm); format: binding; settings: for Tm of peptide-cJun heterodimer: CD ellipticity at 222 nm, 1-90 °C, peptide (5 μM)/cJun (5 μM), 20 mM potassium phosphate, 150 mM potassium fluoride, 2 mM TCEP pH 7.4, two-state fit, duplicate experiments, ± one SD; for ΔTm of cJun heterodimer due to lactamization: cyclized versus its linear (non-lactamized) counterpart
T1 construct: The same 60 amino acid cJun construct, encompassing the entire bZIP domain, was used for all experiments
Procedure: (§1) The precise nature of the interaction between the cJun DBD and the rationally designed acidic domain of HW1 is unknown. HW1 was, therefore, iteratively truncated from the N terminus (HW2–6) to investigate the effect on cJun binding and cJun/TRE DNA antagonism (Table 1). Peptide fraction helicity (fH) was determined by quantifying the circular dichroism (CD) signal at 222 nm of peptide-only samples (Figure S1). Thermal denaturation experiments were then used to determine the melting temperature (Tm) of peptide-cJun heterodimers, which serves as an approximate measure of target engagement. CD was also used to investigate the functional activity of peptides in antagonizing the cJun/TRE DNA interaction. […] This provides a clear and direct measurement of the proportion of DNA bound to cJun. As antagonist peptide concentration was increased, the peak shifted to overlay with that of free TRE-DNA (Figure S4). For each peptide, the data were fit to a Hill equation to determine half-maximal inhibitory concentration (IC50) values, specific to these assay conditions, providing a clear comparative measure of antagonism. The same 60 amino acid cJun construct, encompassing the entire bZIP domain, was used for all experiments regardless of antagonist peptide length.
Figure 2 Iterative N-terminal truncation of HingeW reduces cJun binding and antagonism (A) Thermal denaturation profiles for iteratively truncated peptide (5 μM)/cJun (5 μM) heterodimer samples. (B) CD antagonism data produced by monitoring the shift in a DNA specific peak to provide a direct readout of cJun-DNA binding. Peptides are added at the indicated concentrations to a pre-incubated mixture of cJun (20 μM) and TRE DNA (5 μM). Data points were averaged from triplicate experiments, and error bars indicate one SD. The data were fitted to a Hill equation to determine IC50 values. Some higher peptide concentration data points for HW6 and HW9 are not shown in this plot for clarity.

[1] = Peptide fraction helicity by CD at 222 nm, peptide-only samples; format: physicochemical; settings: CD signal at 222 nm of peptide-only samples; pH 7.4 phosphate/KF/TCEP buffer; duplicate experiments
Procedure: as §1

[2] = biological target: T2, cJun (60 amino acid construct encompassing the entire bZIP domain) (UniProt P05412 252-315); assay: cell-based or functional assay
[3] = biological target: T2, cJun (60 amino acid construct …); assay: CD thermal denaturation; peptide (5 μM) with cJun (5 μM); ellipticity at 222 nm, 1°C to 90°C; 20 mM potassium phosphate, 150 mM potassium fluoride, 2 mM TCEP, pH 7.4; two-state fit gives the Tm of the peptide-cJun heterodimer; duplicate experiments; settings: both partners purified

T2 sequence (P05412 252-315): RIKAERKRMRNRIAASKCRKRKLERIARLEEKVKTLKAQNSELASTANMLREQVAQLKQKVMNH
T1 sequence (P05412 252-315 limits assumed): as the sequence (P05412 252-315) above

Tm of peptide-cJun heterodimer (cJun): 44.8 ± 1.2 °C
fH, peptide fraction helicity [1]: 32.8%
Molecule: Ac-EAEELVVEEDVLEEEIEQLEERNYALRKEIEDL-NH2 [HW9]

ΔTm of cJun heterodimer due to lactamization (cJun): ~2 °C
Molecule: CC[C@H](C)[C@H](NC(=O)[C@H](CCC(=O)O)NC(=O)[C@H](CCCCN)NC(=O)[C@H](CCCNC(=N)N)NC(=O)[C@H](CC(C)C)NC(=O)[C@H](C)NC(=O)[C@H](Cc1ccc(O)cc1)NC(=O)[C@H](CC(N)=O)NC(=O)[C@H](CCCNC(=N)N)NC(=O)[C@H](CCC(=O)O)NC(=O)[C@H](CCC(=O)O)NC(=O)[C@H](CC(C)C)NC(=O)[C@H](CCC(N)=O)NC(=O)[C@H](CCC(=O)O)NC(=O)[C@@H](NC(=O)[C@H](CCC(=O)O)NC(=O)[C@H](CCC(=O)O)NC(=O)[C@H](CCC(=O)O)NC(=O)[C@H](CC(C)C)NC(=O)[C@@H](NC(=O)[C@H](CC(=O)O)NC(=O)[C@H](CCC(=O)O)NC(=O)[C@H](CCC(=O)O)NC(=O)[C@@H]1CC(=O)NCCCC[C@H](NC(=O)[C@H](C)NC(=O)[C@H](CCC(=O)O)NC(C)=O)C(=O)N[C@@H](CCC(=O)O)C(=O)N[C@@H](CC(C)C)C(=O)N[C@@H](C(C)C)C(=O)N1)C(C)C)[C@@H](C)CC)C(=O)N[C@@H](CCC(=O)O)C(=O)N[C@@H](CC(=O)O)C(=O)N[C@@H](CC(C)C)C(=O)N[C@@H](CCC(N)=O)C(=O)N[C@@H](CCCCN)C(=O)N[C@@H](CCC(N)=O)C(N)=O [HW21] (Ac-EAKELVDEEDVLEEEIEQLEERNYALRKEIEDLQKQ-NH2; lactam 3-7)

Tm of peptide-cJun heterodimer (cJun): 53.8 ± 5.3 °C
fH, peptide fraction helicity [1]: 31.2%
Molecule: Ac-EAEELVVEEDVLEEEIEQLEERNYALRKEIEDLQ-NH2 [HW16]

Tm of peptide-cJun heterodimer (cJun): 56.2 ± 1.3 °C
fH, peptide fraction helicity [1]: 36.0%
Molecule: Ac-EAEELVVEEDVLEEEIEQLEEKNKALKDEIEDLQKQY-NH2 [HW26]

Tm of peptide-cJun heterodimer (cJun): 68.5 ± 1.1 °C
fH, peptide fraction helicity [1]: 32.8%
Molecule: Ac-LARENEELEKEAEELVVEEDVLEEEIEQLEERNYALRKEIEDLQKQLEKL-NH2 [HW2]

ΔTm of cJun heterodimer due to lactamization (cJun): ~9 °C
Molecule: CC[C@H](C)[C@H](NC(=O)[C@H](CCC(=O)O)NC(=O)[C@H](CCCCN)NC(=O)[C@H](CCCNC(=N)N)NC(=O)[C@H](CC(C)C)NC(=O)[C@H](C)NC(=O)[C@H](Cc1ccc(O)cc1)NC(=O)[C@H](CC(N)=O)NC(=O)[C@H](CCCNC(=N)N)NC(=O)[C@H](CCC(=O)O)NC(=O)[C@H](CCC(=O)O)NC(=O)[C@H](CC(C)C)NC(=O)[C@H](CCC(N)=O)NC(=O)[C@H](CCC(=O)O)NC(=O)[C@@H](NC(=O)[C@H](CCC(=O)O)NC(=O)[C@@H]1CC(=O)NCCCC[C@H](NC(=O)[C@H](CCC(=O)O)NC(=O)[C@H](CCC(=O)O)NC(=O)[C@@H](NC(=O)[C@@H](NC(=O)[C@H](CC(C)C)NC(=O)[C@H](CCC(=O)O)NC(=O)[C@H](CCC(=O)O)NC(=O)[C@H](C)NC(=O)[C@H](CCC(=O)O)NC(C)=O)C(C)C)C(C)C)C(=O)N[C@@H](C(C)C)C(=O)N[C@@H](CC(C)C)C(=O)N[C@@H](CCC(=O)O)C(=O)N1)[C@@H](C)CC)C(=O)N[C@@H](CCC(=O)O)C(=O)N[C@@H](CC(=O)O)C(=O)N[C@@H](CC(C)C)C(=O)N[C@@H](CCC(N)=O)C(=O)N[C@@H](CCCCN)C(=O)N[C@@H](CCC(N)=O)C(N)=O [HW23] (Ac-EAEELVVEEKVLEDEIEQLEERNYALRKEIEDLQKQ-NH2; lactam 10-14)

IC50 CD: peptide added to pre-incubated cJun (20 μM) and TRE DNA (5 μM); blocks cJun/TRE DNA binding [2]: 33.7 µM
B1: HW3 (peptide)
peptide: Ac-LEKEAEELVVEEDVLEEEIEQLEERNYALRKEIEDLQKQLEKL-NH2
notes: truncation NΔ17 CΔ3 of HW1; source: synthetic peptide (Fmoc SPPS, RP-HPLC purified)
Tm of the peptide-cJun heterodimer [3]: 67.9 °C

IC50 CD: peptide added to pre-incubated cJun (20 μM) and TRE DNA (5 μM); blocks cJun/TRE DNA binding [2]: 1210 µM
B2: HW9 (peptide)
peptide: Ac-EAEELVVEEDVLEEEIEQLEERNYALRKEIEDL-NH2
notes: truncation NΔ20 CΔ10 of HW1; source: synthetic peptide (Fmoc SPPS, RP-HPLC purified)
Tm of the peptide-cJun heterodimer [3]: 44.8 °C

IC50 CD: peptide added to pre-incubated cJun (20 μM) and TRE DNA (5 μM); blocks cJun/TRE DNA binding [2]: 121 µM
B3: HW26 (peptide)
peptide: Ac-EAEELVVEEDVLEEEIEQLEEKNKALKDEIEDLQKQY-NH2
notes: linear form of the pair HW26/HW27; NΔ20 CΔ7; source: synthetic peptide (Fmoc SPPS, RP-HPLC purified)
Tm of the peptide-cJun heterodimer [3]: 56.2 °C

IC50 CD: peptide added to pre-incubated cJun (20 μM) and TRE DNA (5 μM); blocks cJun/TRE DNA binding [2]: 94.1 µM
B4: HW27 (peptide)
peptide: Ac-EAEELVVEEDVLEEEIEQLEEKNKALKDEIEDLQKQY-NH2
modifications: lactam 24-28
SMILES: CC[C@H](C)[C@H](NC(=O)[C@H](CCC(=O)O)NC(=O)[C@@H]1CC(=O)NCCCC[C@H](NC(=O)[C@H](CC(N)=O)NC(=O)[C@H](CCCCN)NC(=O)[C@H](CCC(=O)O)NC(=O)[C@H](CCC(=O)O)NC(=O)[C@H](CC(C)C)NC(=O)[C@H](CCC(N)=O)NC(=O)[C@H](CCC(=O)O)NC(=O)[C@@H](NC(=O)[C@H](CCC(=O)O)NC(=O)[C@H](CCC(=O)O)NC(=O)[C@H](CCC(=O)O)NC(=O)[C@H](CC(C)C)NC(=O)[C@@H](NC(=O)[C@H](CC(=O)O)NC(=O)[C@H](CCC(=O)O)NC(=O)[C@H](CCC(=O)O)NC(=O)[C@@H](NC(=O)[C@@H](NC(=O)[C@H](CC(C)C)NC(=O)[C@H](CCC(=O)O)NC(=O)[C@H](CCC(=O)O)NC(=O)[C@H](C)NC(=O)[C@H](CCC(=O)O)NC(C)=O)C(C)C)C(C)C)C(C)C)[C@@H](C)CC)C(=O)N[C@@H](C)C(=O)N[C@@H](CC(C)C)C(=O)N[C@@H](CCCCN)C(=O)N1)C(=O)N[C@@H](CCC(=O)O)C(=O)N[C@@H](CC(=O)O)C(=O)N[C@@H](CC(C)C)C(=O)N[C@@H](CCC(N)=O)C(=O)N[C@@H](CCCCN)C(=O)N[C@@H](CCC(N)=O)C(=O)N[C@@H](Cc1ccc(O)cc1)C(N)=O
notes: cyclized form of the pair HW26/HW27; NΔ20 CΔ7; source: synthetic peptide (Fmoc SPPS, on-resin lactamization, RP-HPLC purified)
Tm of the peptide-cJun heterodimer [3]: 58.9 °C

IC50 CD: peptide added to pre-incubated cJun (20 μM) and TRE DNA (5 μM); blocks cJun/TRE DNA binding [2]: 130 µM
B5: HW6 (peptide)
peptide: EDVLEEEIEQLEERNYALRKEIEDLQKQLEKLGAP-NH2
notes: truncation NΔ28 of HW1: the leucine zipper (LZ) only; also called LZ domain of HW1; source: synthetic peptide (Fmoc SPPS, RP-HPLC purified)
Tm of the peptide-cJun heterodimer [3]: 55.1 °C

IC50 CD: peptide added to pre-incubated cJun (20 μM) and TRE DNA (5 μM); blocks cJun/TRE DNA binding [2]: 94.4 µM
B6: HW25 (peptide)
peptide: Ac-EAEELVVEEDVLEEEIKQLEDRNYALRKEIEDLQKQ-NH2
modifications: lactam 17-21
SMILES: CC[C@H](C)[C@H](NC(=O)[C@H](CCC(=O)O)NC(=O)[C@H](CCCCN)NC(=O)[C@H](CCCNC(=N)N)NC(=O)[C@H](CC(C)C)NC(=O)[C@H](C)NC(=O)[C@H](Cc1ccc(O)cc1)NC(=O)[C@H](CC(N)=O)NC(=O)[C@H](CCCNC(=N)N)NC(=O)[C@@H]1CC(=O)NCCCC[C@H](NC(=O)[C@@H](NC(=O)[C@H](CCC(=O)O)NC(=O)[C@H](CCC(=O)O)NC(=O)[C@H](CCC(=O)O)NC(=O)[C@H](CC(C)C)NC(=O)[C@@H](NC(=O)[C@H](CC(=O)O)NC(=O)[C@H](CCC(=O)O)NC(=O)[C@H](CCC(=O)O)NC(=O)[C@@H](NC(=O)[C@@H](NC(=O)[C@H](CC(C)C)NC(=O)[C@H](CCC(=O)O)NC(=O)[C@H](CCC(=O)O)NC(=O)[C@H](C)NC(=O)[C@H](CCC(=O)O)NC(C)=O)C(C)C)C(C)C)C(C)C)[C@@H](C)CC)C(=O)N[C@@H](CCC(N)=O)C(=O)N[C@@H](CC(C)C)C(=O)N[C@@H](CCC(=O)O)C(=O)N1)C(=O)N[C@@H](CCC(=O)O)C(=O)N[C@@H](CC(=O)O)C(=O)N[C@@H](CC(C)C)C(=O)N[C@@H](CCC(N)=O)C(=O)N[C@@H](CCCCN)C(=O)N[C@@H](CCC(N)=O)C(N)=O
notes: cyclized form of the pair HW24/HW25; NΔ20 CΔ7; source: synthetic peptide (Fmoc SPPS, on-resin lactamization, RP-HPLC purified)
Tm of the peptide-cJun heterodimer [3]: 60.9 °C

IC50 CD: peptide added to pre-incubated cJun (20 μM) and TRE DNA (5 μM); blocks cJun/TRE DNA binding [2]: 101 µM
B7: HW28 (peptide)
peptide: Ac-EAEELVVEEDVLEEEIEQLEERNYALRKEIKDLQDQ-NH2
notes: linear form of the pair HW28/HW29; NΔ20 CΔ7; source: synthetic peptide (Fmoc SPPS, RP-HPLC purified)
Tm of the peptide-cJun heterodimer [3]: 55.6 °C
